Reference: the nanobody polyreactivity screen of Harvey et al. (2022)

Assay: yeast display, Sf9 membrane polyspecificity reagent, FACS + sequencing; frameworks hold sequencing errors
Summary of the method: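 After 36–48 hours of galactose induction, yeast (Saccharomyces cerevisiae BJ5465) displaying a synthetic nanobody library were stained at 4 °C for 1 hour with 10% biotinylated, detergent-solubilized Sf9 membrane reagent. Streptavidin microbeads enriched the stained cells before FACS sorting into low and high (top ~1%) gates on anti-HA and streptavidin fluorescence. Each clone's polyreactivity label reflects its gate of origin.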

Row | Sequence | polyreactivity (PSR sort gate)
1 | QVQLVDSGGGLVQAGGSLRLSCAASGFIFVGYGMGWYRQAPGKERELVAAIDGGGSTYYADSVKGRFTISRDNAKNTVYLQMNSLKPEDTAVYYCNALPAYGWYDYDYWGQGTQVTVSS | low polyreactivity
2 | QVQLVESGGGLVQAGGSLRLSCAASGRTFPYYVMGWNRQAPRKERELVATISSSGRTYYADSVKGRFTISRDNAKNTVYLQMNSLNPEDTSVYYCAARFRWNQNYHFYYWGQGTQVTVSS | high polyreactivity
3 | QVQLVESGGGLVQAGGSLRLSCAASGSPSQPYAMGWYRQAPGKVRELVASITNGGITYYADSVKGRFPISRDNANNTVELQMNSLKPEDTAVYYCARTGPSAYWEFDYWGQGTQVTVSS | low polyreactivity
4 | QVQLVESGGGLVQAGGSLRLSCAASGSTLWYNAMGWYRQAPGKERELVATITAGGGSTYYADSVKGRFTISRDNAKNTVYLQMNSLKPEDTAVYYCATRRSRGPWYRNAYDYWGQGTQVTVSS | low polyreactivity
5 | QVQLVESGGGLVQAGGSLRLSCDASGLIFYSYAMGWYRQAPGKERELVAAISSRGGSTYYADSVKGRFTISRDNAKNTVYLQMNSLKQEDSAVYYCNAYFLLPHYDYWGQGTQVTVSS | low polyreactivity
6 | QVQLVESGGGLVQAGGSLRLSCAASGFTFFYNAMGWYRQAPGKEREFVAAISGRGGTTYYADSVKGRFTISRDNAKNTVYLQMNSLKPEDTAVYYCNAGSSPIRQYYGQVWKKGGYWGQGTQVTVSS | high polyreactivity
7 | QVQLVESGGGLVQAGGSLRLSCAASGFTFYRNAMGWYRQAPGKERELVAGISKRGGSTYYADSVKGRFTISRDNAKNTVYLQMNSLKPEDTAVYYCAAYKQYRFYRYDYWGQGTQVTVSS | high polyreactivity
8 | QVQLVESGGGLVQAGGSLRLSCAASGSIVNIYAMGWYRQAPGKERQLVARISCSGVSTYYADSVKGRLTISRDHAKNTVYLQMNSLKREDTAVYDCAARYGRVYYYGWYWLYYWGQGTQVTVSS | high polyreactivity
9 | KVQLVESVGGLVQAGGSLRLSCAASGFTFCRNTMGWYRQAPGKEREFVAAITVTGGSTYYADSVKGRFTISRDNAKNTVYLQMNSLKPEDTAVYYCAAGWTSAYVNYDYWGQGTQVTVSS | low polyreactivity
10 | QVQLVESGGGLVQAGGSLRLSCAASGRTFYYYVMGWYRQAPGKEREFVAAITSGGSTNYADSVKGRFTISRDNAKNTVYLQMNSLKPEDTAVYYCAAGKYTIYGYWTPYDYWGQGTQVTVSS | low polyreactivity
11 | QVQLVESGGGLVQAGGSLRLSCAASGSTFYVNAMGWYRQTPGKERELVATIPSGSITDYADSVKGRFTISRDNAKNTVYLQMNSLKPEDTAVYYCAKTYVQEHGVDYWGQGTQVTVSS | low polyreactivity
12 | QVQLVESGGGLVQAGGSLRLSCAASGRIFSRNAMGWYRQAPGKERELVAAISGSGGSTYYADSVKGRFTISRDNAKNTVYLQMNSLKPEDTAVYYCNKFGYHREYDYWGQGTQVTVSS | low polyreactivity
13 | QVQLVESGGGLVQAGGSLGLSCAASGFTFDLYAMGWYRQAPGKERALVAAISWSGGSTRYADSVKGRFTISRDYAKNTVYLQMNSLKPEDTAVYYCARQPRLYFKGKLYGYWGQGTQVTVSS | high polyreactivity
14 | QVQLVESGGGLVQAGGSLRLSCASSGITFPNYAMGWSRQAPGNERELVAAISSSGGSTYYADSVKGRFTISRDKAKNTGYLQMNSLKPEDTAVYYCATAINVYPRMDYGYWGQGTQVTVSS | low polyreactivity
15 | QVQLEESGGGLFQAGGSLRLSCAASGSTIFSNAMGWYRQAPGKAREVVAAITSDGGTYYADSVKGRFTISRDNAKKTVYLQMNSLKPEDTAVYYCNVGSFTGHSYGFGYWGQGTQVTVSS | low polyreactivity
16 | QVQLVESGVGLVQAGGSLRLSCSASGIIFDDYAMGWYRQAPGKERELVAAISRRGGSTYYADSVKGRFTISRDNAKNTVYLQMNSLKPEDTAVYYCAATTRTYSLYNYWGQGTHVTVSS | high polyreactivity
17 | QVQLVESGGGLVQAGGSLRLSCAPSGITLVRYAMGWYRQAPGKERELVAAISSSGGSTYYADSVKGRFTISRDNAMNPVYLQMNSLKPEDTAVYYCAKRLYYGDPPTYDYWGQGTQVTVSS | high polyreactivity
18 | QVQLVESGGGLVQAGGSLRLSCSASGSTFYLYAMGWYRQAPGKEREFVADISLSGDSTYYADSVKGRFTISRDNAKNTVYLQMNSLKPEDTAVYYCAADVFYPGPWSYEYWGQGTQVTVSS | low polyreactivity
19 | QVQLVESGGGLVQAGGSLRLSCAASGNTFRSYAMGWYRQAPGKERELVAAISGRGGSTYYADSVKGRFTISRDNAKNTVDLQMNSRKPEDTAVYYCAAESRRVNYANDYWGQGTQVTVSS | high polyreactivity
20 | QVQLVESGGGLVQAGGSLRLICAASGSTFGRYAMGWYRQAPGKERELVAGITYGSTYYADSVKGRFTISRDNAKNTVYLQMHSLKPEDTAVYYCAADLSYTSVHGYRSDTLMDYWRQGTQVTVSS | low polyreactivity
21 | QVQLVDSGGGLVQAGGSLRLSCAASGIIFWYYTRGWYRQAPGKERELVASISRGGSTYYADSVKGRFTISRDNAKNTVYLQMNSLKPEDTAVYYCARRPNTGPYGNYDYWGQGTQVTVSS | high polyreactivity
22 | QVQLVETGGGLVQAGGSLRLCCAASGRIFWYNAMGWYRPAPGKERELVAAISSIDGTTYYADSVKGRFTISRDNAKNTVYLQMNSLKPEDTAVYYCAAEDPADQYDYWGQGTQVTVSS | high polyreactivity

Row | Sequence | polyreactivity (PSR sort gate)
23 | QVQLVESGGGLVQAGGSLRLSCAASGRIFSVYSMGWYRQAPGKERELVAAIRSGDRTNYADSVKGRFTISRDNAKNTVYLQMISLKPEVTAVYYCAAVRYPNWYDYWGHGTQVTVSS | high polyreactivity
24 | QVQLVESGGGLVQAGGSLRLSCAASGSIYDPYAMGWYRQAPGKERELVAAINGGSGSTFYADSVKGRFTISRDNAKNTVYFQMNSLKPEDTAVYYCAAKIWRYSPSYYPEPRGDYWGQGTQVNVSS | low polyreactivity
25 | QVQLVESGGGLVQAGGSLRLSCAASGSIFRFNTMGWYRQAPGKERELVAAITSGDGTYYADSVKGRFTISRDNAKNTVYLQMNSLKPEDTAVYYCAATRTYQLYRWAPRYYYWGQGTQVTVSS | high polyreactivity
26 | QVQLVESGGGLVQAGGSLRLSCAASGSTLGAYAMGWYRQAPGKERELVAAISRSGGNTYYADSVKGRFTISRDNAKNTVYLQMNSLKPEDTAVYYCAAVRLYRYDYWGQGTQVTVSS | low polyreactivity
27 | QVQLVESGGGLVQAGGSLRLSCAASGIIFYVNAMGWYRQAPGKERDLVAAITFGGDSTYYADSVKGRFTISRDNAMNTVSVQMNSLKPEDTAVYYCATDGDPAYPEMEYLGQGTQVTVSS | low polyreactivity
28 | QVQLVESGGGLVQAGGSLRLSCAASGFTLWLYAMGWYRQAPGKERELVATISYRGDSTYYADSVKGRFTISRDNAKNTVYLQMNSLKPEDTAVYYCARRYTHTGRYYYWGQGTQVTVSS | high polyreactivity
29 | QVHLVESGGGLVQAGGSLRLSCAASGSIFTRYTMGWYRQAPGKERELVAAITRSGGSTYYADSVKGRFTISRDNAKNTVYLQMNSLKPEDTAVYYCAARVRLATGARDYWGQGTQVTVSS | high polyreactivity
30 | QVQLVESGGGLVQAGGSLRLSCAASGSISIGYTMGWYRQSPGKERDLVATISWSGGNTYYADSVKGRFTIARDNAKNTVYLQINSLKPEDSAVYYFAARWYYYPLLYDYWGQGTQVTVSS | low polyreactivity
31 | QVQLVESGGGLVQAGGSLRLSCAASGNTFRWYDMGGYRQAPGKERELVAAITSSGSTTYYADSVKGRFTISRDNAKNTVYLQMNSLKPEDTAVYYCAAEDHYEGYGGYYWGHGTQVTVSS | low polyreactivity
32 | QVQLVESGGGLVQAGGSLRLRCAASGMGWYRQAPGKEWEKVATITWSDGITYADSVKGRFTISRDNAKNTVYLQMNSLKPEDTAVYYCNADWDQTGTVFYSFGLREMDSWGQCTQVTVSS | low polyreactivity
33 | QVQLVESGGGLVQAGGSLRLSCAAYGRIFPLNAMGWNRQAPGKERELVAAISYDGGTYYAYSVKGRFTISRDNAKNTFYLQMNSLKPEDTAVYYCANSRATWVGKHDYWGQGTQVTVSS | low polyreactivity
34 | QVQLVESGGGLVQAGGSLRLSCAASGLTFWYYAMGWYRQAPGKERELVAAISWSGGRTSYADSVKGRFTISRDNAKNTVYLQMNSLKPEDTAVYYCAADKDFRTGEFEYDYWGQGTQLTVSS | high polyreactivity
35 | QVQLVESGGGLVQAGGSLRLSCAASGFIFFYNAMGWYRQAPGKERELVADISSGGRTYYADSVKGRFTISRDNAKNTVYLQMNSLKPEDTAVYYCAAQSRYWVVRMDYWGQGTQVTVSS | high polyreactivity
36 | QVQLVESGGGLVQAGGSLRLTCAASGRTFWRYGMGWYRPAPVKETELVAAITDSVDSTNYADSVKGRFTISRDNAKNTVYLQMNSLKPEDTAVYYCAASDVVFALNGYYPGEDDYWGQGTQVTVSS | low polyreactivity
37 | QVQLVESGGGLVQAGGSLRLSCAASGSIFNINAMGWYRHAPGKERELVAVITSRDGRTYYADSVKGRFTISRDNAKNTVYLQMNSLKPEDTAVYYCAADVVNRHYYFWGQGTQVTVSS | low polyreactivity
38 | QVQLVESGGGLVQAGGSLRLSCAPSGSTFVYYAMGWYRPAPGKERELVAAINRSGTRTYYADSVKGRFSISRDNAKNTVYLQMNSLKPEDTAVYYCDKAVQGKYGYWGQGTQVTVSS | high polyreactivity
39 | QVQLVESGGGLVQAGGSLRLSGAASGSTFRRNAMGWSRQAPGKERELVAAISRRGGRTYYADSVKGRFTISRDNAKNTVYLQLNSLKPEDTAVYYCAADVIYSGDYWGQGTQVTVSS | high polyreactivity
40 | QVQLVESGGGLVQAGGSLRLSCAASGSIFYTNAMGWYRQATGKERELVAVITASGGSTYYADSVKGRFTISRDNAKNTVYLQMNSLKPEDTAVYYCAADPVFNYDYWGQGTQVTVSS | low polyreactivity
41 | QVQLVESGGGLVQAGGSLRLSCAASGSIFSTYAMGWYRQAPGKERELVAAISRRAGTTYYADSVKGRFTISRDNAKNTVYLQMNSLKPEDTAVYYCAALTESSSYGYWGQGTQVTVSS | low polyreactivity
42 | QVQLVESGGGLVQAGGSLRLSCAASGRILVYNTMGWSRQAPGKERELVAGIRRGGSTDYADSVKGRFTISRDNAKNTVYLQMNSLNAEDTAVYYCNARYSTGYTKLGYWGQGTQVTVSS | low polyreactivity
43 | QVQLVESGGGLVQAGGSLRLSCAASGSTIEFNAMGWYRPAPGKERELVAAISGSGASTYYADSVKGRFTISRDNAKNTVYLQMNSLTPEVTAVYYCNADSLYYDYQTVDVQALDYWGQATQVTVSS | low polyreactivity
